Assay [1] has as its target T1, human RYK on the surface of human tumor cell lines (human, UniProt P34925 46-607).
T1 construct: whole, on cells; Endogenous expression
The experiment in a line: flow cytometry, RAMOS cells (Burkitt NHL), 5 ug/ml 2-D11-Alexa647; line unmarked (no staining). As to the method: (§1) Table 1 provides the flow cytometry data on various cancer cell lines stained with fluorochrome-conjugated 2-D11, as depicted in FIG. 8. The name of each cell line is listed in the first column and the tissue of origin is listed in the second column. Binding of the 2-D11 mAb to human RYK was assessed by flow cytometric staining and analysis by staining on ice for 20 minutes with 5 μg/ml of 2-D11 anti-human RYK-Alexa647 conjugated mAb or equal amounts of isotype matched control mAb, washed, and analyzed. The median fluorescence intensity (MFI) of 2-D11 stained cells is listed in the middle column and the MFI of isotype control stained cells are listed in the in the adjacent column. Cell lines were scored as “++”, “+”, or neg (unmarked with “+”) lines based on the ratio of median fluorescence intensity (MFI) of stained cells relative to the MFI of isotype control stained cells (MFIR).
(§2) The name of each cell line is listed in the first column and the tissue of origin is listed in the second column. Binding of the 2-D11 mAb to human RYK was assessed by flow cytometric staining and analysis by staining on ice for 20 minutes with 5 μg/ml of 2-D11 anti-human RYK-Alexa647 conjugated mAb or equal amounts of isotype matched control mAb, washed and analyzed. […]
Background: In flow cytometry, cells or beads pass a laser one at a time.

Assay [2] concerns the target T1, human RYK on the surface of human tumor …. The experiment in a line: flow cytometry, MEC1 cells (CLL), 5 ug/ml 2-D11-Alexa647; line unmarked (no staining). The protocol: as §1, §2
The target is the same in assay [3]. The experiment in a line: flow cytometry, SK-MEL-2 cells (skin), 5 ug/ml 2-D11-Alexa647; line unmarked (no staining). As to the method: as §1, §2
The target is the same in assay [4]. The experiment in a line: flow cytometry, JEKO cells (mantle), 5 ug/ml 2-D11-Alexa647; line unmarked (no staining). The protocol:
as §1, §2

The target is the same in assay [5]. The experiment in a line: flow cytometry, HS683 cells (brain), 5 ug/ml 2-D11-Alexa647. As to the method:
as §1, §2

Assay [6] shares this target. The experiment in a line: flow cytometry, SW948 cells (colon), 5 ug/ml 2-D11-Alexa647; line unmarked (no staining). As to the method: as §1, §2
Assay [7] shares this target. The experiment in a line: flow cytometry, SH-SY5Y cells (brain), 5 ug/ml 2-D11-Alexa647. As to the method:
as §1, §2

For assay [8] the target is unchanged. The experiment in a line: flow cytometry, OVCAR4 cells (ovarian), 5 ug/ml 2-D11-Alexa647. As to the method: as §1, §2
Assay [9] has the same target. The experiment in a line: flow cytometry, RAJI cells (Burkitt NHL), 5 ug/ml 2-D11-Alexa647; line unmarked (no staining). The protocol: as §1, §2
The target is the same in assay [10]. The experiment in a line: flow cytometry, JURKAT cells (T-cell ALL), 5 ug/ml 2-D11-Alexa647; line unmarked (no staining). The protocol: as §1, §2
Assay [11] shares this target. The experiment in a line: flow cytometry, T47-D cells (breast), 5 ug/ml 2-D11-Alexa647. The protocol:
as §1, §2

For assay [12] the target is unchanged. The experiment in a line: flow cytometry, MDA-MB-231 cells (breast), 5 ug/ml 2-D11-Alexa647; line unmarked (no staining). As to the method:
as §1, §2

Assay [13] shares this target. The experiment in a line: flow cytometry, PC3 cells (prostate), 5 ug/ml 2-D11-Alexa647; line unmarked (no staining). As to the method:
as §1, §2

Assay [14] has the same target. The experiment in a line: flow cytometry, NALM6 cells (ALL), 5 ug/ml 2-D11-Alexa647; line unmarked (no staining). As to the method: as §1, §2
The target is the same in assay [15]. The experiment in a line: flow cytometry, MINO cells (mantle), 5 ug/ml 2-D11-Alexa647. The protocol: as §1, §2

T1 sequence (P34925 46-607 limits assumed, form in doubt): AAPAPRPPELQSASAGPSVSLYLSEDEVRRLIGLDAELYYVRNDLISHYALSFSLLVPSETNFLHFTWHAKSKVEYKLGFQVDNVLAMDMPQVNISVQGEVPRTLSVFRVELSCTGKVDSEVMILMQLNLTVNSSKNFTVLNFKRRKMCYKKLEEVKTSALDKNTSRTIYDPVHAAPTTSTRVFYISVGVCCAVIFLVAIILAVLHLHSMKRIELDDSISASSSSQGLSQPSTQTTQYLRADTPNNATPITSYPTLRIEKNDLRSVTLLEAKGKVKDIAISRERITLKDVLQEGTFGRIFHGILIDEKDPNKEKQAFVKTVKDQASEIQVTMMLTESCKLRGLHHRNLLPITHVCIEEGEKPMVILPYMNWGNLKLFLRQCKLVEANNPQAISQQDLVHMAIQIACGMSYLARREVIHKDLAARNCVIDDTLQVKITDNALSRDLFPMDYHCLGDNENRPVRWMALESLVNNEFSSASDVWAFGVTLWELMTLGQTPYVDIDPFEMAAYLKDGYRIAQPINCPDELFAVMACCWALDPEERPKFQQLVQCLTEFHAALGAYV

B1: 2-D11 anti-human RYK mAb (antibody, V domains shown)
VH: QVQLKESGPGLVAPSQSLSITCSVSGFSLNDYGVNWVRQPPGKDLEWLGMIWGDGVTEYNSTLKSRLSISKDNSKSQVFLKMNNLQTEDTARYYCVRQGSGVWFAHWGQGTLVSVSS
VL: DVLVTQTPLSLPVSLGDQASISCRSSQTIVHSNGNTYLEWYLQKPGQSPKLLIYKVSNRFSGVPDRFSGSGSGTDFTLKISRVEAEDLGIYYCFQGSHVPYTFGGGTKLEIK
notes: Mouse hybridoma mAb, kappa light chain, detected with anti-mouse IgG; also called mAb 2-D11; 2-D11 anti-human RYK-Alexa647 conjugated mAb
B1: the “MFIR (MFI ratio to isotype control)” value in assay [1] came out at 1.1; in assay [2] it was 1.1; in [3] it was 1.1; in assay [4], 1.3; in [5], 2.5; in assay [6], 1.1. The “MFIR (MFI ratio to isotype control)” value in assay [7] came to 2; in assay [8], 2.1; in [9], 1; in [10], 1.1; in assay [11] it was 2; in assay [12], 1.1. For the same molecule, the “MFIR (MFI ratio to isotype control)” value came to 1.2 in assay [13], 1.3 in assay [14] and 2 in assay [15].

The values are drawn from patent publication US20250027945A1 (University of California, published 2025).
